Measured values: paper PMC12930380, “Overcoming Ligand Discovery Challenges: Developing Peptide-Based Tracers for SPSB2” (ACS Chemical Biology, 2025)
Bridge positions count the residues as written; N and C are the ends. Square brackets hold non-standard residues; d marks the D form. Primed or numbered codes have the meaning given here. Ends that are not written are not given here. Peptide text beside a SMILES is read from it. * marks the point of attachment. X1 = O=C(CCC1=[N+]2C(=Cc3ccc(-c4ccc[nH]4)n3[B-]2(F)F)C=C1)*; PEG4′ = tetra(ethylene glycol) spacer; PEG4 = NCCOCCOCCOCCOCCC(=O)O; PEG4″ = not defined here

Legend:
hSPSB2^SPRY [1] = target: T1, hSPSB2^SPRY (Homo sapiens, UniProt Q99619); assay: Differential scanning fluorimetry (thermal shift); assay type: binding; conditions: DSF, 50 μM peptide, 5 μM His-hSPSB2^SPRY, 30 mM HEPES pH 7.5, 5% DMSO, mean ± SD (n = 4); for Mean Tm: DMSO control 43.2 ± 0.1
T1 construct: Human His6-SPSB2^SPRY (86–219) was expressed as a fusion construct; made in house; host or cells: Escherichia coli BL21(DE3)
T1 sequence (Q99619 26-219 limits assumed): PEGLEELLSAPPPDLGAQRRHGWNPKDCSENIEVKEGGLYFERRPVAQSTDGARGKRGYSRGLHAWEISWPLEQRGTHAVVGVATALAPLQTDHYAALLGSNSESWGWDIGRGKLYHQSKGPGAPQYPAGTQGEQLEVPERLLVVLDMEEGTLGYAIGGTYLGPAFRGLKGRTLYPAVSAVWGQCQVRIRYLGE
Experimental: For peptide screening, 50 μM peptide was added to 5 μM His-hSPSB2^SPRY diluted in buffer containing 30 mM HEPES pH 7.5, 100 mM NaCl, 1 mM TCEP, 5x SYPRO Orange and 5% DMSO as quadruplicates. Thermal shift analyses were carried out using a QuantStudio 5 Real-Time PCR System (Applied Biosystems) with a temperature gradient ranging from 25 to 95 °C at an increase of 0.05 °C/s. Data analysis was performed by fitting a Boltzmann sigmoidal curve to the raw values using the Protein Thermal Shift software (Applied Biosystems).

hSPSB2^SPRY [2] = target: T1, hSPSB2^SPRY; assay: Surface plasmon resonance single cycle kinetics; assay type: binding; conditions: immobilized His-hSPSB2^SPRY; for SPR binding behaviour (qualitative): no KD determined; for koff / kon: mean ± SD (n = 3); for koff: read-out: SPR koff (dissociation rate constant); for kon: read-out: SPR kon (association rate constant)
Experimental: Surface Plasmon Resonance experiments were conducted on a Biacore T200 instrument with a Series S Sensor Chip CM5 (Cytiva) and 10 mM HEPES pH 7.5, 150 mM NaCl, 0.5 mM TCEP, 0.05% Tween20 and 2% DMSO for the running buffer. His-hSPSB2^SPRY was diluted to 5 μg/mL in Acetate pH 5.5 and immobilized at 10 μL/min to reach 400–700 RU response levels on Flow-channel (FC) 2–4 for triplicates. Immobilization was performed via standard amine coupling procedure by injecting a mixture of 483 mM EDC and […] for activation with a subsequent injection of 1 M ethanolamine for deactivation. FC1 was used as a reference surface without protein-injection. Kinetic titration experiments were performed using a single-cycle kinetics procedure, with five peptide concentrations (0.8 nM to 1 μM) injected for 150 s each at a flow rate of 30 μL/min, followed by a dissociation phase of 600 s. After each peptide titration, multiple buffer injections were performed to reach a stable baseline. Solvent correction and blank injections were also included. After referencing, blank subtraction, and solvent correction, the data were analyzed using the Biacore T200 evaluation software. Sensorgrams with overlaid fit were replotted using GraphPad Prism version 8.0.1.

HCT116 cells = assay: CellTiter-Glo cytotoxicity assay; assay type: cell-based; conditions: 0.39 μM to 50 μM, 2 h incubation, 37 °C, n = 6
Experimental: For cytotoxicity measurements, 10 μL HCT116 cells in Dulbecco’s Modified Eagle Medium (DMEM) were seeded at 2*10^5 cells/mL into a white 384-well-flat-bottom plate. […] Ten μL CellTiter-Glo 2.0 Reagent (Promega) was added to each well, followed by an incubation of 10 min at RT. Luminescence was measured, using a PheraSTAR FSX plate reader. Data was normalized to cells treated with 1% DMSO (100% survival control) and digitonin (0% survival control), then plotted using GraphPad Prism version 8.0.1.

[3] = target: T2, C-terminally Nanoluc-tagged human full length SPSB2 (human, UniProt Q99619 1-263); assay: FRET or BRET; NanoBRET displacement in intact HCT116 cells transfected with SPSB2-NanoLuc; 20 nM cyclic TAT tracer, cyclic TAT peptide titrated 6 nM to 50 uM, triplicates (biological replicate); conditions: one partner purified
T2 construct: also called SPRY domain-containing SOCS box protein 2; source: HCT116, transfected, in intact cells; not shown: NanoLuc, C-terminal, kept
T2 sequence (looked up): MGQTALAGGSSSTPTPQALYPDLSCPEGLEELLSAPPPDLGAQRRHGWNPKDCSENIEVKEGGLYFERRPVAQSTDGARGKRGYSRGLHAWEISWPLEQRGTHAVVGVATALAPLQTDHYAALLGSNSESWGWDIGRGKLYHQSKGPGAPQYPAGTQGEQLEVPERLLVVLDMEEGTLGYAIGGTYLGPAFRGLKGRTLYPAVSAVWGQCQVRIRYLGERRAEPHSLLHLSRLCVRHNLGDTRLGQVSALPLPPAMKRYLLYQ

[4] = target: T2, C-terminally Nanoluc-tagged human full …; assay: FRET or BRET; NanoBRET displacement in intact HCT116 cells transfected with SPSB2-NanoLuc; 30 nM cyclic TAT tracer, cyclic TAT peptide titrated 6 nM to 50 uM, triplicates; conditions: one partner purified
[5] = target: Human His6-SPSB2^SPRY (86–219) (human) (UniProt Q99619); assay: differential scanning fluorimetry; 50 μM peptide added to 5 μM His-hSPSB2^SPRY; 30 mM HEPES pH 7.5, 100 mM NaCl, 1 mM TCEP, 5x SYPRO Orange, 5% DMSO; 25 to 95 °C; quadruplicates
[6] = target: T3, C-terminally Nanoluc-tagged human full length SPSB2 (human, UniProt Q99619 1-263); assay: FRET or BRET; NanoBRET tracer titration, apparent KD; 39 pM - 2.5 μM tracer titrated to intact HCT116 cells transfected with SPSB2-NanoLuc; 2 h at 37 °C; conditions: one partner purified
T3 construct: source: HCT116, transfected (FuGENE HD), in intact or digitonin-permeabilized cells; not shown: NanoLuc, C-terminal, kept
T3 sequence (looked up): T2 sequence (looked up)

[7] = target: T3, C-terminally Nanoluc-tagged human full …; assay: FRET or BRET; NanoBRET tracer titration, apparent KD; 39 pM - 2.5 μM tracer titrated to HCT116 cells transfected with SPSB2-NanoLuc and permeabilized with 25 μM digitonin; conditions: one partner purified
[8] = target: Human His6-SPSB2^SPRY (86–219) (human) (UniProt Q99619); assay: differential scanning fluorimetry
[9] = target: Human His6-SPSB2^SPRY (86–219) (human) (UniProt Q99619); assay: SPR

Molecule: PEG4-YGRKKRRQRRRGSGVDINNN [Linear TAT peptide]
- ΔTm (hSPSB2^SPRY [1]): 10.6 ± 0.1 °C
- Mean Tm (hSPSB2^SPRY [1]): 53.8 ± 0.1 °C
- SPR binding behaviour (qualitative) (hSPSB2^SPRY [2]): non 1:1 binding interaction

Molecule: CC[C@H](C)[C@H](NC(=O)[C@H](CC(=O)O)NC(=O)[C@H](CCCCN)NC(=O)[C@H](CCC(=O)O)NC(=O)[C@H](CCC(=O)O)NC(=O)[C@@H](N)CCCCN)C(=O)N[C@@H](CC(N)=O)C(=O)N[C@@H](CC(N)=O)C(=O)N[C@@H](CC(N)=O)C(=O)N[C@H](C(=O)N[C@@H](CCCCN)C(=O)N[C@@H](CCCCN)C(=O)N[C@H](C(=O)O)[C@@H](C)O)C(C)C [iNOS peptide, reference compound] (H-KEEKDINNNVKKT-OH)
- ΔTm at 50 µM (hSPSB2^SPRY [1]): 14.1 ± 0.1 °C
- koff (hSPSB2^SPRY [2]): 0.0024 s⁻¹
- kon (hSPSB2^SPRY [2]): 2.9e+06 M⁻¹ s⁻¹

Molecule: CC[C@H](C)[C@H](NC(=O)[C@H](CC(=O)O)NC(=O)[C@@H](NC(=O)CNC(=O)[C@H](CO)NC(=O)CNC(=O)[C@@H]1CSSC[C@H](NC(=O)CCOCCOCCOCCOCCN)C(=O)N[C@@H](Cc2ccc(O)cc2)C(=O)NCC(=O)N[C@@H](CCCNC(=N)N)C(=O)N[C@@H](CCCCN)C(=O)N[C@@H](CCCCN)C(=O)N[C@@H](CCCNC(=N)N)C(=O)N[C@@H](CCCNC(=N)N)C(=O)N[C@@H](CCC(N)=O)C(=O)N[C@@H](CCCNC(=N)N)C(=O)N[C@@H](CCCNC(=N)N)C(=O)N[C@@H](CCCNC(=N)N)C(=O)N1)C(C)C)C(=O)N[C@@H](CC(N)=O)C(=O)N[C@@H](CC(N)=O)C(=O)N[C@@H](CC(N)=O)C(=O)O [Cyclic TAT peptide] (H-[PEG4]CYGRKKRRQRRRCGSGVDINNN-OH; disulfide 2-14; N-terminus and C-terminus assumed)
- ΔTm at 50 µM (hSPSB2^SPRY [1]): 8.1 ± 0.1 °C
- Mean Tm (hSPSB2^SPRY [1]): 51.4 ± 0.1 °C
- Impact on cell viability (CellTiter-Glo, qualitative) (HCT116 cells): no impact on cell viability at any tested concentration
- SPR binding behaviour (qualitative) (hSPSB2^SPRY [2]): non 1:1 binding interaction

Molecule: CC[C@H](C)[C@H](NC(=O)[C@H](CC(=O)O)NC(=O)[C@@H](NC(=O)CNC(=O)[C@H](CO)NC(=O)CNC(=O)[C@H](CC(=O)O)NC(=O)CNC(=O)[C@H](CCCNC(=N)N)NC(=O)CCOCCOCCOCCOCCN)C(C)C)C(=O)N[C@@H](CC(N)=O)C(=O)N[C@@H](CC(N)=O)C(=O)N[C@@H](CC(N)=O)C(=O)O [Linear RGD peptide] (H-[PEG4]RGDGSGVDINNN-OH; N-terminus and C-terminus assumed)
- ΔTm at 50 µM (hSPSB2^SPRY [1]): 10.9 ± 0.2 °C
- Mean Tm (hSPSB2^SPRY [1]): 54.1 ± 0.2 °C
- koff (hSPSB2^SPRY [2]): 0.032 s⁻¹
- kon (hSPSB2^SPRY [2]): 200000 M⁻¹ s⁻¹

Molecule: CC[C@H](C)[C@H](NC(=O)[C@H](CC(=O)O)NC(=O)[C@@H](NC(=O)CNC(=O)[C@H](CO)NC(=O)CNC(=O)[C@@H]1CSSC[C@H](NC(=O)CCOCCOCCOCCOCCNC(=O)CCC2=[N+]3C(=Cc4ccc(-c5ccc[nH]5)n4[B-]3(F)F)C=C2)C(=O)N[C@@H](Cc2ccc(O)cc2)C(=O)NCC(=O)N[C@@H](CCCNC(=N)N)C(=O)N[C@@H](CCCCN)C(=O)N[C@@H](CCCCN)C(=O)N[C@@H](CCCNC(=N)N)C(=O)N[C@@H](CCCNC(=N)N)C(=O)N[C@@H](CCC(N)=O)C(=O)N[C@@H](CCCNC(=N)N)C(=O)N[C@@H](CCCNC(=N)N)C(=O)N[C@@H](CCCNC(=N)N)C(=O)N1)C(C)C)C(=O)N[C@@H](CC(N)=O)C(=O)N[C@@H](CC(N)=O)C(=O)N[C@@H](CC(N)=O)C(=O)O [Cyclic TAT tracer] ({X1-PEG4}-CYGRKKRRQRRRCGSGVDINNN-OH; disulfide 1-13)
- Concentration leading to reduced cell survival (CellTiter-Glo) (HCT116 cells): above 10 μM

B1: cyclic TAT peptide (PEG4-CYGRKKRRQRRRCGSGVDINNN) (peptide)
peptide: [PEG4′]CYGRKKRRQRRRCGSGVDINNN
modifications: disulfide 2-14
notes: also called cyclic TAT peptide variant; source: synthetic peptide (custom synthesized by Synpel Chemical, GeneCust and GenScript Biotech)
- EC50 [3]: ~200 nM
- EC50 [4]: ~386 nM

Molecule: [PEG4′]CYGRKKRRQRRRCGSGVDINNN (disulfide 2-14) [cyclic TAT peptide]
- ΔTm [5]: 8.1 °C

B2: Cyclic TAT tracer (peptide)
peptide: {BODIPY 576/589-PEG4″}-CYGRKKRRQRRRCGSGVDINNN
modifications: disulfide 1-13
notes: also called fluorophore-tagged cyclic TAT tracer; source: synthetic peptide (custom synthesized by Synpel Chemical, GeneCust and GenScript Biotech)
- Kd [6]: 86 nM
- Kd [7]: 346 nM

Molecule: [PEG4′]RGDGSGVDINNN [linear RGD peptide]
- ΔTm [8]: 10.9 °C
- Kd [9]: 162 nM
- koff [9]: 0.032 s⁻¹
- kon [9]: 200000 M⁻¹ s⁻¹

Molecule: [PEG4′]YGRKKRRQRRRGSGVDINNN [linear TAT peptide]
- ΔTm [5]: 10.6 °C

Molecule: KEEKDINNNVKKT [iNOS peptide]
- ΔTm [8]: 14.1 °C
- Kd [9]: 0.8 nM
- koff [9]: 0.0024 s⁻¹
- kon [9]: 2.9e+06 M⁻¹ s⁻¹
